Molecular target: CD3 (Homo sapiens (Human)) (UniProt P07766)
Assay: IHC on tissue (human tonsil), 1ug/mL primary antibody, detected with Goat Anti-rabbit-HRP/DAB; 6 ROIs, 3 tissues, 95% CI for the mean; P=0.000 against H4K4-E

Staining Intensity by ImageJ (mean): 62
Substance: rabbit anti-CD3(SP162) antibody (unmodified)
